Data from the supplement of paper PMC10567573.
± gives the standard deviation.

Experiment: protein stability index of a GFP-peptide fusion (GPS, HEK-293T) (PSI 1-6); higher = more stable
Details: c terminus: a fixed tail appended
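Note: 24-mer peptide tiles fused after GFP, lentivirally expressed, FACS-sorted into six equal bins by GFP/DsRed ratio, decoded by Illumina sequencing, PSI is the read-weighted mean bin number.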

Sequence	protein stability index (treatment: DMSO)	protein stability index (treatment: MLN4924 1 uM, 8 h)
LQEPGVFSPTPPQQFQPAGTDQVC [FCHSD1]	4.25 ± 0.16	4.45 ± 0.27
HPDDRPKLNKPPETLITTIDSSSS [CYB5A]	4.85 ± 0.49	5.04 ± 0.32
SLEDLIFESLPENASHKLEVRLVP [ATE1]	2.79 ± 0.3	2.98 ± 0.3
LTSDLYAPMVAGALARLGTVTVIS [SLC25A39]	2.92 ± 0.4	2.67 ± 0.69
AMDLGFFVVMGVIGGLLGATFNCL [CLCN6]	2.68 ± 0.13	3.19 ± 0.056
YGQGRKIAEVCCTSIVYATEKKQT [KCTD10]	2.83 ± 0.34	3.1 ± 0.21
AQTIPTKDRLEGLLAFKEKRPPRY [AUH]	3.73 ± 0.24	4.06 ± 0.24
ILDLLVLEQFLSILPKELQGWVRE [ZSCAN9]	2.38 ± 0.45	2.19 ± 0.39
ELKLEQQEAAERESKLLRDLSAAN [LRRC45]	4.62 ± 0.18	4.77 ± 0.23
SASHRPCVNGDVDKPSEPASEEGS [SMG5]	5.49 ± 0.17	5.641 ± 0.046
KLEESKQLLKNNEKLITWLNKELN [SASS6]	2.24 ± 0.36	1.99 ± 0.73
RRYVASVSLHDRIYVIGGYDGRSR [KLHL12]	2.53 ± 0.31	2.49 ± 0.5
LAFPLKHPDSWRAYPFYWAWLPQA [PI4K2A]	2.42 ± 0.65	2.48 ± 0.84
DQDLDALMADLVADISEAEQRTIQ [APBB1IP]	4.48 ± 0.36	4.56 ± 0.21
LQKLLSGRSREELDELTGEVAGGG [FEM1A]	4.64 ± 0.19	4.71 ± 0.2
WTNGSGLALCQRYYHRGHVDPAND [MCOLN1]	3.11 ± 0.12	3.12 ± 0.21
VVILPCQHNLCRKCASDIFQASNP [TRIM55]	2.48 ± 0.34	2.38 ± 0.22
NIPMETEETHLEETTESQQNGEEG [SMARCE1]	5.39 ± 0.5	5.6 ± 0.21
KYDYLMTLHGVVNESTVCLMSYER [TENT5D]	2.38 ± 0.34	2.36 ± 0.22
GVEVIVRISHTLYDLDKIIELNGG [CRY1]	3.29 ± 1.2	2.57 ± 0.76
SKPGVYTSYKPYLNRDEEIIKQLQ [DENND6A]	–	3.35 ± 0.42
KVVKGHRPELPPVCRARPRACSHL [RIPK4]	3.19 ± 0.36	3.04 ± 0.46
KDKEYAEIIRKQVSATKAEAEKDG [UBE2R2]	5.39 ± 0.29	5.38 ± 0.21

Sequence	protein stability index (treatment: DMSO)	protein stability index (treatment: MLN4924 1 uM, 8 h)
VLEWGAEGVAGKSGLEKEVQRLTS [FCHSD1]	4.1 ± 0.16	4.09 ± 0.22
GAGDVVLLQRELAQEDSLNKLALQ [LYSMD4]	4.29 ± 0.29	4.01 ± 0.5
MLNEPLVREIVKECSNIPLSQPQQ [GAN]	3.85 ± 0.2	3.95 ± 0.077
ADSQITTIGNLVPQKTYSVKVLAF [PTPRD]	2.46 ± 0.56	2.17 ± 0.28
KYRSYEEFKADAQLLLHNTVIFYG [ZMYND11]	2 ± 0.46	2.07 ± 0.33
LWGRTQEEAEELAKEMSVPFYTSR [GFOD1]	3.4 ± 0.18	3.61 ± 0.32
MGSQGSPVKSYDYLLKFLLVGDSD [RAB40C]	2.29 ± 0.28	2.37 ± 0.099
SAAGHLKVVQSLLNHGASVNNTTL [FEM1C]	3.06 ± 0.21	3.13 ± 0.38
DIKAAFAPFGRISDARVVKDMATG [TIA1]	3.31 ± 0.16	3.18 ± 0.4
QKVLGKALSLIRFPLMTIEEFAAG [BTBD1]	3.06 ± 0.57	2.52 ± 0.38
EQPFIPVEVLVDLFLKEGACDELF [PRAME]	2.39 ± 0.16	2.39 ± 0.35
EVCCTSIVYATEKKQTKVEFPEAR [KCTD13]	3.88 ± 0.34	3.9 ± 0.28
PGLSQGPGKETLESALIALDSEKP [EHMT1]	5.33 ± 0.28	5.31 ± 0.18
QSNLEPLSPMTASSFLSFAELFSY [FEM1A]	2.26 ± 0.26	2.42 ± 0.3
ASENHGCEHECVNADGSYLCQCHE [MATN2]	5.46 ± 0.17	5.49 ± 0.38
KFPPEEELQREWLGNREALIQFLE [CPN1]	3.69 ± 0.18	3.8 ± 0.18
ATNSSWVVVFKALVTTHHLMVHGN [SNAP91]	3.43 ± 0.31	3.4 ± 0.28
TGFRTISSLEEIVEKQGDTIEYLK [TMEM192]	3.98 ± 0.41	4 ± 0.2
KENSHQVKEELSQKFDTLYAILDE [TRIM63]	4.77 ± 0.27	4.57 ± 0.18
RFFASSSLHHTSECTQMDHLGCMH [ALDH8A1]	2.87 ± 0.22	2.85 ± 0.32
CSCEWMAAMFGGSFVESANSEVYL [RHOBTB1]	2.96 ± 0.62	2.85 ± 0.89
YTPDLPRADVDHAIEKAFQLWSNV [MMP1]	2.6 ± 0.73	2.86 ± 0.77
